By stoichiometry N is commonly meant the number of molecules, sites or subunits per partner or assembly.

The target of data set [1] is T1, CsiR (Pseudomonas putida KT2440) (UniProt Q88IU1).
T1 sequence: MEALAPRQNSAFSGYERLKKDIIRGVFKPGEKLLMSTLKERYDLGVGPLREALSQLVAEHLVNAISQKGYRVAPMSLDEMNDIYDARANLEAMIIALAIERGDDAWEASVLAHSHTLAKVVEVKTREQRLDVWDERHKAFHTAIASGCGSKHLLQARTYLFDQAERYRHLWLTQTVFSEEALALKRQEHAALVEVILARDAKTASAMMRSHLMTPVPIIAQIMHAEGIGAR
The data set is described as follows: EMSA. As to conditions: 10 mM Tris-HCl pH 7.4, 50 mM KCl, 0.5 mM EDTA, 10% glycerol, 1 mM DTT; 30 C, 30 min; 6% native PAGE at 4 C. A general note: A gel shift assay detects complexes by their altered migration in electrophoresis.

For data set [2], the target named is T2, GcdR (Pseudomonas putida KT2440) (UniProt Q88RH3).
T2 sequence: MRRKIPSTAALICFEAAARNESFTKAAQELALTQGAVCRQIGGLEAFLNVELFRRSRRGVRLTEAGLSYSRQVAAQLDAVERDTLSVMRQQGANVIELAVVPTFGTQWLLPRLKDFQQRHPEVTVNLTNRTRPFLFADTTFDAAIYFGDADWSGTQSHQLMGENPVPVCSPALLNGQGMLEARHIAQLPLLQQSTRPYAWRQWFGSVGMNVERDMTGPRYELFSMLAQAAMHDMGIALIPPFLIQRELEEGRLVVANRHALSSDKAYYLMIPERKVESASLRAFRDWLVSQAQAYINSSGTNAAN
Briefly: EMSA. As to conditions: 10 mM Tris-HCl pH 7.4, 50 mM KCl, 0.5 mM EDTA, 10% glycerol, 1 mM DTT; 30 C, 30 min; 6% native PAGE at 4 C.

For data set [3], the target named is His6-tagged GcdR of P. putida KT2440 (Pseudomonas putida KT2440) (UniProt Q88RH3). Briefly: SEC; Superdex 200 10/300 GL gel filtration of purified GcdR against molecular mass standards, compared with SDS-PAGE; buffer A (20 mM sodium phosphate, 500 mM sodium chloride, pH 7.4), 0.5 ml min^-1. For orientation: SEC sorts molecules by how far they enter the pores of the column.

Data set [4] deals with the molecule itself. Briefly: SEC; Superdex 200 10/300 GL gel filtration of purified CsiR against molecular mass standards, compared with SDS-PAGE; buffer C (50 mM sodium phosphate, 150 mM sodium chloride, pH 7.2), 0.5 ml min^-1.

As to “GATCCTGTTCCTCAAAACGTTTTGCCGATCATACCGAAACCCTCTGCTGACGAAAAACAATGGACAAACACGAGTAGTGTCGTTGAAAAATAAAAATGTAGACATTTTCAGTTAGTGGCGATATTTTTACCTCGCCCGCACTGATCCAGGTCATGACCGGACGGCGCCATCTACTTTTTTAGCCAGGACACTGCC (double strand) [F1 (csiR-csiD intergenic region)]”, in data set [1], the binding result is recorded as “binds”.

For “GCCGCCTCGAAGCAAATCAGGGCGGCGGTACTGGGGATCTTACGGCGCATGTACGTCAACCTCACTTGTAAGGCTGTCAATAAGGCGTTTTGCCGATTTACGGAGTGACAAAATATCACTAATCGGTGCGCAATCCTCGTTTGTCGCCGCAGCCGATCAGGCCTAGGCTCAAAGGCACAAGAAACTGACCCCTATTTCGAGGATTCGCTCATGGTCGGTAAAGCAAGTTTCAACTGGATCGACCCGTTGCTGCTGGATCA (double strand)”, the binding result in data set [2] is recorded as “binds”.

In data set [3], “His6-tagged GcdR of P. putida KT2440 (from UniProt Q88RH3 1-305) (natural protein)” came in with a stoichiometry N of 4.

B1: His6-tagged CsiR protein of P. putida KT2440 (natural protein, Pseudomonas putida KT2440, UniProt Q88IU1 1-231, looked up)
chain: MEALAPRQNSAFSGYERLKKDIIRGVFKPGEKLLMSTLKERYDLGVGPLREALSQLVAEHLVNAISQKGYRVAPMSLDEMNDIYDARANLEAMIIALAIERGDDAWEASVLAHSHTLAKVVEVKTREQRLDVWDERHKAFHTAIASGCGSKHLLQARTYLFDQAERYRHLWLTQTVFSEEALALKRQEHAALVEVILARDAKTASAMMRSHLMTPVPIIAQIMHAEGIGAR
notes: CsiR, GntR family transcriptional regulator of Pseudomonas putida KT2440, encoded by csiR (pp2908); gene amplified from genomic DNA with primers csiR-F/csiR-R and cloned BamHI/HindIII into pETDuet-1; Cloning into the BamHI/HindIII sites of pETDuet-1 would usually give an N-terminal His tag (surmise); No tag cleavage is described; also called GntR family regulator CsiR; source: E. coli BL21(DE3) …
As to B1, the “stoichiometry N” value in data set [4] was 2.

Source of the values: article PMC6667623, “Regulation of Glutarate Catabolism by GntR Family Regulator CsiR and LysR Family Regulator GcdR in Pseudomonas putida KT2440” (mBio, 2019).
